Test results as given in publication PMC12203613.

B1: AtHPPD (4-hydroxyphenylpyruvate dioxygenase) (Arabidopsis thaliana) (protein)
chain: MGHQNAAVSENQNHDDGAASSPGFKLVGFSKFVRKNPKSDKFKVKRFHHIEFWCGDATNVARRFSWGLGMRFSAKSDLSTGNMVHASYLLTSGDLRFLFTAPYSPSLSAGEIKPTTTASIPSFDHGSCRSFFSSHGLGVRAVAIEVEDAESAFSISVANGAIPSSPPIVLNEAVTIAEVKLYGDVVLRYVSYKAEDTEKSEFLPGFERVEDASSFPLDYGIRRLDHAVGNVPELGPALTYVAGFTGFHQFAEFTADDVGTAESGLNSAVLASNDEMVLLPINEPVHGTKRKSQIQTYLEHNEGAGLQHLALMSEDIFRTLREMRKRSSIGGFDFMPSPPPTYYQNLKKRVGDVLSDDQIKECEELGILVDRDDQGTLLQIFTKPLGDRPTIFIEIIQRVGCMMKDEEGKAYQSGGCGGFGKGNFSELFKSIEEYEKTLEAKQLVG
B2: OsHPPD (4-hydroxyphenylpyruvate dioxygenase) (Oryza sativa Japonica Group) (protein)
chain: PPTPTPTATTGAVSAAAAAGENAGFRLVGHRRFVRANPRSDRFQALAFHHVELWCADAASAAGRFAFALGAPLAARSDLSTGNSAHASLLLRSASVAFLFTAPYGGDHGVGADAATTASIPSFSPGAARRFAADHGLAVHAVALRVADAADAFRASVAAGARPAFQPADLGGGFGLAEVELYGDVVLRFVSHPDGADAPFLPGFEGVSNPGAVDYGLRRFDHVVGNVPELAPVAAYISGFTGFHEFAEFTAEDVGTAESGLNSVVLANNAETVLLPLNEPVHGTKRRSQIQTYLDHHGGPGVQHIALASDDVLGTLREMRARSAMGGFEFLAPPPPNYYDGVRRRAGDVLSEEQINECQELGVLVDRDDQGVLLQIFTKPVGDRPTFFLEMIQRIGCMEKDESGQEYQKGGCGGFGKGNFSELFKSIEEYEKSLEAKQAPTVQGS

Substrate: O=C(O)C(=O)Cc1ccc(O)cc1
Assay: purified protein
Details: Fe(II)

| Protein | Km [µM] |
| --- | --- |
| B1 | 44.04 |
| B2 | 40.02 |
